Laboratory results taken from patent US20070077597A1 (published 2007).

T1: human thrombin receptor (PAR1) (human, UniProt P25116 42-425)
T1 sequence (looked up): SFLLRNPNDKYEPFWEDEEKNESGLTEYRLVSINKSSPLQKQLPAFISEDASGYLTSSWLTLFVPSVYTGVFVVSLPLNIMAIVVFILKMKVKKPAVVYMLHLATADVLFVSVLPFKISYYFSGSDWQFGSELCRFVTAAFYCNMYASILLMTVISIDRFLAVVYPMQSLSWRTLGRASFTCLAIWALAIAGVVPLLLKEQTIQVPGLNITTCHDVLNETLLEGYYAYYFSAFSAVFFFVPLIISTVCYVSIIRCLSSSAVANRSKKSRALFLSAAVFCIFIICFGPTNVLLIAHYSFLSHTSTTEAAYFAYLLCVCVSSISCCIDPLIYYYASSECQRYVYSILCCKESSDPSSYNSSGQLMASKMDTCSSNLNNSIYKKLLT

B1: LacI fusion clone 8 (Gt library) (other, E. coli, not shown: small tags and cut ends)
chain: MKPVTLYDVAEYAGVSYQTVSRVVNQASHVSAKTREKVEAAMAELNYIPNRVAQQLAGKQSLLIGVATSSLALHAPSQIVAAIKSRADQLGASVVVSMVERSGVEACKAAVHNLLAQRVSGLIINYPLDDQDAIAVEAACTNVPALFLDVSDQTPINSIIFSHEDGTRLGVEHLVALGHQQIALLAGPLSSVSARLRLAGWHKYLTRNQIQPIAEREGDWSAMSGFQQTMQMLNEGIVPTAMLVANDQMALGAMRAITESGLRVGADISVVGYDDTEDSSCYIPPLTTIKQDFRLLGQTSVDRLLQLSQGQAVKGNQLLPVSLVKRKTTLAPNTQTASPRALADSLMQLARQVSRLESGQLLENLRDCGMF
notes: also called Peptide 8; HAP
B2: LacI fusion clone L3 (Gt library) (other, E. coli, not shown: small tags and cut ends)
chain: MKPVTLYDVAEYAGVSYQTVSRVVNQASHVSAKTREKVEAAMAELNYIPNRVAQQLAGKQSLLIGVATSSLALHAPSQIVAAIKSRADQLGASVVVSMVERSGVEACKAAVHNLLAQRVSGLIINYPLDDQDAIAVEAACTNVPALFLDVSDQTPINSIIFSHEDGTRLGVEHLVALGHQQIALLAGPLSSVSARLRLAGWHKYLTRNQIQPIAEREGDWSAMSGFQQTMQMLNEGIVPTAMLVANDQMALGAMRAITESGLRVGADISVVGYDDTEDSSCYIPPLTTIKQDFRLLGQTSVDRLLQLSQGQAVKGNQLLPVSLVKRKTTLAPNTQTASPRALADSLMQLARQVSRLESGQILENLKDCGLF
B3: LacI fusion clone 13 (Gt library), IRGSLKDCGLF (other, E. coli, not shown: small tags and cut ends)
chain: MKPVTLYDVAEYAGVSYQTVSRVVNQASHVSAKTREKVEAAMAELNYIPNRVAQQLAGKQSLLIGVATSSLALHAPSQIVAAIKSRADQLGASVVVSMVERSGVEACKAAVHNLLAQRVSGLIINYPLDDQDAIAVEAACTNVPALFLDVSDQTPINSIIFSHEDGTRLGVEHLVALGHQQIALLAGPLSSVSARLRLAGWHKYLTRNQIQPIAEREGDWSAMSGFQQTMQMLNEGIVPTAMLVANDQMALGAMRAITESGLRVGADISVVGYDDTEDSSCYIPPLTTIKQDFRLLGQTSVDRLLQLSQGQAVKGNQLLPVSLVKRKTTLAPNTQTASPRALADSLMQLARQVSRLESGQIRGSLKDCGLF
notes: also called L20
B4: LacI fusion clone L6 (Gt library) (other, E. coli, not shown: small tags and cut ends)
chain: MKPVTLYDVAEYAGVSYQTVSRVVNQASHVSAKTREKVEAAMAELNYIPNRVAQQLAGKQSLLIGVATSSLALHAPSQIVAAIKSRADQLGASVVVSMVERSGVEACKAAVHNLLAQRVSGLIINYPLDDQDAIAVEAACTNVPALFLDVSDQTPINSIIFSHEDGTRLGVEHLVALGHQQIALLAGPLSSVSARLRLAGWHKYLTRNQIQPIAEREGDWSAMSGFQQTMQMLNEGIVPTAMLVANDQMALGAMRAITESGLRVGADISVVGYDDTEDSSCYIPPLTTIKQDFRLLGQTSVDRLLQLSQGQAVKGNQLLPVSLVKRKTTLAPNTQTASPRALADSLMQLARQVSRLESGQICENLKDCGLF
B5: LacI fusion clone L38 (Gt library) (other, E. coli, not shown: small tags and cut ends)
chain: MKPVTLYDVAEYAGVSYQTVSRVVNQASHVSAKTREKVEAAMAELNYIPNRVAQQLAGKQSLLIGVATSSLALHAPSQIVAAIKSRADQLGASVVVSMVERSGVEACKAAVHNLLAQRVSGLIINYPLDDQDAIAVEAACTNVPALFLDVSDQTPINSIIFSHEDGTRLGVEHLVALGHQQIALLAGPLSSVSARLRLAGWHKYLTRNQIQPIAEREGDWSAMSGFQQTMQMLNEGIVPTAMLVANDQMALGAMRAITESGLRVGADISVVGYDDTEDSSCYIPPLTTIKQDFRLLGQTSVDRLLQLSQGQAVKGNQLLPVSLVKRKTTLAPNTQTASPRALADSLMQLARQVSRLESGQLLDILKDCGLF
B6: LacI fusion clone L10 (Gt library), IHDRLKDCGLF (other, E. coli, not shown: small tags and cut ends)
chain: MKPVTLYDVAEYAGVSYQTVSRVVNQASHVSAKTREKVEAAMAELNYIPNRVAQQLAGKQSLLIGVATSSLALHAPSQIVAAIKSRADQLGASVVVSMVERSGVEACKAAVHNLLAQRVSGLIINYPLDDQDAIAVEAACTNVPALFLDVSDQTPINSIIFSHEDGTRLGVEHLVALGHQQIALLAGPLSSVSARLRLAGWHKYLTRNQIQPIAEREGDWSAMSGFQQTMQMLNEGIVPTAMLVANDQMALGAMRAITESGLRVGADISVVGYDDTEDSSCYIPPLTTIKQDFRLLGQTSVDRLLQLSQGQAVKGNQLLPVSLVKRKTTLAPNTQTASPRALADSLMQLARQVSRLESGQIHDRLKDCGLF
notes: this is the first
B7: LacI fusion clone L33 (Gt library) (other, E. coli, not shown: small tags and cut ends)
chain: MKPVTLYDVAEYAGVSYQTVSRVVNQASHVSAKTREKVEAAMAELNYIPNRVAQQLAGKQSLLIGVATSSLALHAPSQIVAAIKSRADQLGASVVVSMVERSGVEACKAAVHNLLAQRVSGLIINYPLDDQDAIAVEAACTNVPALFLDVSDQTPINSIIFSHEDGTRLGVEHLVALGHQQIALLAGPLSSVSARLRLAGWHKYLTRNQIQPIAEREGDWSAMSGFQQTMQMLNEGIVPTAMLVANDQMALGAMRAITESGLRVGADISVVGYDDTEDSSCYIPPLTTIKQDFRLLGQTSVDRLLQLSQGQAVKGNQLLPVSLVKRKTTLAPNTQTASPRALADSLMQLARQVSRLESGQIVEILEDCGLF
B8: LacI fusion clone L34 (Gt library) (other, E. coli, not shown: small tags and cut ends)
chain: MKPVTLYDVAEYAGVSYQTVSRVVNQASHVSAKTREKVEAAMAELNYIPNRVAQQLAGKQSLLIGVATSSLALHAPSQIVAAIKSRADQLGASVVVSMVERSGVEACKAAVHNLLAQRVSGLIINYPLDDQDAIAVEAACTNVPALFLDVSDQTPINSIIFSHEDGTRLGVEHLVALGHQQIALLAGPLSSVSARLRLAGWHKYLTRNQIQPIAEREGDWSAMSGFQQTMQMLNEGIVPTAMLVANDQMALGAMRAITESGLRVGADISVVGYDDTEDSSCYIPPLTTIKQDFRLLGQTSVDRLLQLSQGQAVKGNQLLPVSLVKRKTTLAPNTQTASPRALADSLMQLARQVSRLESGQILESLNECGLF
B9: LacI fusion clone L14 (Gt library) (other, E. coli, not shown: small tags and cut ends)
chain: MKPVTLYDVAEYAGVSYQTVSRVVNQASHVSAKTREKVEAAMAELNYIPNRVAQQLAGKQSLLIGVATSSLALHAPSQIVAAIKSRADQLGASVVVSMVERSGVEACKAAVHNLLAQRVSGLIINYPLDDQDAIAVEAACTNVPALFLDVSDQTPINSIIFSHEDGTRLGVEHLVALGHQQIALLAGPLSSVSARLRLAGWHKYLTRNQIQPIAEREGDWSAMSGFQQTMQMLNEGIVPTAMLVANDQMALGAMRAITESGLRVGADISVVGYDDTEDSSCYIPPLTTIKQDFRLLGQTSVDRLLQLSQGQAVKGNQLLPVSLVKRKTTLAPNTQTASPRALADSLMQLARQVSRLESGQLRENLKDCGLL
B10: LacI fusion clone L15 (Gt library) (other, E. coli, not shown: small tags and cut ends)
chain: MKPVTLYDVAEYAGVSYQTVSRVVNQASHVSAKTREKVEAAMAELNYIPNRVAQQLAGKQSLLIGVATSSLALHAPSQIVAAIKSRADQLGASVVVSMVERSGVEACKAAVHNLLAQRVSGLIINYPLDDQDAIAVEAACTNVPALFLDVSDQTPINSIIFSHEDGTRLGVEHLVALGHQQIALLAGPLSSVSARLRLAGWHKYLTRNQIQPIAEREGDWSAMSGFQQTMQMLNEGIVPTAMLVANDQMALGAMRAITESGLRVGADISVVGYDDTEDSSCYIPPLTTIKQDFRLLGQTSVDRLLQLSQGQAVKGNQLLPVSLVKRKTTLAPNTQTASPRALADSLMQLARQVSRLESGQVRDILKDCGLF

target: T2, light-activated bovine rhodopsin (metarhodopsin II) in rod outer segment membranes (bovine, UniProt P02699 1-348, retinylidene chromophore on Lys-296 (all-trans after light)); experiment: first screening of the Gαt library on light-activated rhodopsin
T2 construct: whole, on cells; also called MII
T2 sequence (P02699 whole entry): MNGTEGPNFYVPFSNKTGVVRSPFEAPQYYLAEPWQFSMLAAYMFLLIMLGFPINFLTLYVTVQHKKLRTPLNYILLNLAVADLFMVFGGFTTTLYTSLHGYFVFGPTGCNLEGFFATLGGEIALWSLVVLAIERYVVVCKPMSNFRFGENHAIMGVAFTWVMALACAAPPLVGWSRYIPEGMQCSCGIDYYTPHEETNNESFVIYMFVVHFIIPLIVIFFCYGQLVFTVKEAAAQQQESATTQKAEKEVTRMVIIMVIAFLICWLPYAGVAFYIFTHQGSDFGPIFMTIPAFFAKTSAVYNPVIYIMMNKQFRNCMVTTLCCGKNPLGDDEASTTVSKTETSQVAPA

With B1 the “fold higher binding than the native sequence” value was 1000 fold.

target: T1, human thrombin receptor (PAR1); experiment: cell-based or functional assay

In order of falling “thrombin-mediated HA-MAPK activity in HMEC” value:
1. MGLHDNLKQLMLQ [Gα13 C-terminal minigene peptide (pcDNA-Gα13)]  77 % decrease
2. MGIKNNLKDCGLF [Gαi C-terminal minigene peptide (pcDNA-Gαi)]  59 % decrease
3. MGLQLNLKEYNAV [Gαq C-terminal minigene peptide (pcDNA-Gαq)]  57 % decrease
4. MGLQENLKDIMLQ [Gα12 C-terminal minigene peptide (pcDNA-Gα12)]  50 % decrease

target: T1, human thrombin receptor (PAR1); experiment: ELISA dose-response, purified MBP-Gαq on purified reconstituted PAR1 with thrombin receptor activating peptide

For “purified maltose binding protein-Gαq (MBP-Gαq), native Gq C-terminal peptide fusion”, the IC50 was 214 nM.

target: T2, light-activated bovine rhodopsin …; experiment: ELISA of clone lysate on rhodopsin
Procedure: The methods of Example 7 repeated using rhodopsin screening with a Gt library. To identify the rank order of binding, the lysates were analyzed using ELISA methods in which the secondary antibody was conjugated to HRP. Following addition of the substrate, the microplate was read using a spectrophotometer. The binding is the OD₄₅₀ for wells with receptor—OD₄₅₀ for wells in which no receptor (control wells with empty lipid vesicles).

In order of rising “ELISA (OD450 with receptor minus OD450 without receptor)” value:
1. B4  0.342 OD450
2. B3  0.423 OD450
3. B6  0.506 OD450
4. B8  0.603 OD450
5. B10  0.621 OD450
6. B5  0.823 OD450
7. B9  0.833 OD450
8. B2  0.839 OD450
9. B7  1.01 OD450
